# Laboratory results: IntAct's records for PubMed 29997244
# B1: DnaJ homolog subfamily C member 5 (Homo sapiens), Q9H3Z4 (parent)
# chain: MADQRQRSLSTSGESLYHVLGLDKNATSDDIKKSYRKLALKYHPDKNPDNPEAADKFKEINNAHAILTDATKRNIYDKYGSLGLYVAEQFGEENVNTYFVLSSWWAKALFVFCGLLTCCYCCCCLCCCFNCCCGKCKPKAPEGEETEFYVSPEDLEAQLQSDEREATDTPIVIQPASATETTQLTADSHPSYHTDGFN
# partner: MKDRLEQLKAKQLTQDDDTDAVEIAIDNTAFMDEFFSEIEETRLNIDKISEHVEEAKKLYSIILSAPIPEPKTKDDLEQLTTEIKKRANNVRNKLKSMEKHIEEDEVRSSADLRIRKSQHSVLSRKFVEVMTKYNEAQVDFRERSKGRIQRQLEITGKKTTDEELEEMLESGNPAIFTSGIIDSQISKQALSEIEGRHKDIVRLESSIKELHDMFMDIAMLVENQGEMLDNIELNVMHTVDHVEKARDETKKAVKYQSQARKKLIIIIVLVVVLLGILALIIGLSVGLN
# B2: DnaJ homolog subfamily C member 5 (Homo sapiens), Q9H3Z4 (parent)
# chain: B1 chain
# partner: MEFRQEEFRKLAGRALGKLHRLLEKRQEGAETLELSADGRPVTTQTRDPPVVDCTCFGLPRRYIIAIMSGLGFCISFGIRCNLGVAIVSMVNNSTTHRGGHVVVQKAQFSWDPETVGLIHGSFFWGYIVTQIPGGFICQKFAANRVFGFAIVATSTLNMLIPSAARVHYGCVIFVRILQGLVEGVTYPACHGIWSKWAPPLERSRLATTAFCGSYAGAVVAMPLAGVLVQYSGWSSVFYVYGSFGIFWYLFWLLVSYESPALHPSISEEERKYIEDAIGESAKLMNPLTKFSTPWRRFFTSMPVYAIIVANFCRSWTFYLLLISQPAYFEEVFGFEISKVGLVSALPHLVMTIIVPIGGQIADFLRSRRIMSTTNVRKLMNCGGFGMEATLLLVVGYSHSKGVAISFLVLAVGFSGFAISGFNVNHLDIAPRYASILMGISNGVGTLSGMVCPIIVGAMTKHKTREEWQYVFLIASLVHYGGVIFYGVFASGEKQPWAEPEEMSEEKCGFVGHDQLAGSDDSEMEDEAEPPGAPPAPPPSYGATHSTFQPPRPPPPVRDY
# B3: DnaJ homolog subfamily C member 5 (Homo sapiens), Q9H3Z4 (parent)
# chain: B1 chain
# partner: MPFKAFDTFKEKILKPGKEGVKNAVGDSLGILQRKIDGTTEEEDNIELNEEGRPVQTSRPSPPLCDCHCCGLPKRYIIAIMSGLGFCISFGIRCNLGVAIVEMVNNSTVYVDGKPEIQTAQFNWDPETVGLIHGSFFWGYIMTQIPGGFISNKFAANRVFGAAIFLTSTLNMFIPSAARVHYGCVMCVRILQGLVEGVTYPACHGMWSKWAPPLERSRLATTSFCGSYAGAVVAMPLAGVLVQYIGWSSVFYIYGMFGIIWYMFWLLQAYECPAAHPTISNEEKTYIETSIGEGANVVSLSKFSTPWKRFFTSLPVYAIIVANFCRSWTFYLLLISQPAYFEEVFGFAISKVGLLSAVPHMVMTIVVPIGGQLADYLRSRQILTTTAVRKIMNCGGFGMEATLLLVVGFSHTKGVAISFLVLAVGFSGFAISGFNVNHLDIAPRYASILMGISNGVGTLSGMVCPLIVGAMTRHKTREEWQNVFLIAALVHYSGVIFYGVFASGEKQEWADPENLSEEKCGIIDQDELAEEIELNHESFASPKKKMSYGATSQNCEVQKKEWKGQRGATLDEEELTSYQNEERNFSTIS
# B4: DnaJ homolog subfamily C member 5 (Homo sapiens), Q9H3Z4 (parent)
# chain: B1 chain
# partner: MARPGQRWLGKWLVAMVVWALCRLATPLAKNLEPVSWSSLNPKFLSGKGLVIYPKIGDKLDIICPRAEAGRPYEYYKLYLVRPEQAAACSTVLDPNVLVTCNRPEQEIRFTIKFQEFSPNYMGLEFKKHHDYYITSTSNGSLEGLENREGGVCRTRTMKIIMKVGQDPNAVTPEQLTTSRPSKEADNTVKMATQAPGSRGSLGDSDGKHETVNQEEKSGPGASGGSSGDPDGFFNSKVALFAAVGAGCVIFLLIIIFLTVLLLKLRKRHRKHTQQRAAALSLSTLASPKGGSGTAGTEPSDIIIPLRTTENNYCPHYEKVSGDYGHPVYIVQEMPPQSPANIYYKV
# B5: DnaJ homolog subfamily C member 5 (Homo sapiens), Q9H3Z4 (parent)
# chain: B1 chain
# partner: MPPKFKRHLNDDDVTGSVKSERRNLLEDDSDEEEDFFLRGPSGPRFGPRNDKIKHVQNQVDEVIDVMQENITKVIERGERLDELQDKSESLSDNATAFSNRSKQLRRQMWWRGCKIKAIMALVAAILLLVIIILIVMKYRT
# B6: DnaJ homolog subfamily C member 5 (Homo sapiens), Q9H3Z4 (parent)
# chain: B1 chain
# partner: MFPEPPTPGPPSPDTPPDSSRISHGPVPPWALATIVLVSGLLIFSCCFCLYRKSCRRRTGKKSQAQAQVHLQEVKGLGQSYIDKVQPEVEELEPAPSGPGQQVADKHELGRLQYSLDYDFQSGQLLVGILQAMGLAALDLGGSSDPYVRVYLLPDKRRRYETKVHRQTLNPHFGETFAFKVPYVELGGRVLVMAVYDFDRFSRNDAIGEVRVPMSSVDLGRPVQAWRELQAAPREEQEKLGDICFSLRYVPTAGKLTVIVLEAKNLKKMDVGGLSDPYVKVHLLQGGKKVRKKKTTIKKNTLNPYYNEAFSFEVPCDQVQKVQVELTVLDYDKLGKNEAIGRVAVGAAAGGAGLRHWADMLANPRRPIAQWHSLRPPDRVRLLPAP
# Variants of: B1
# Conditions: with stx3_human STX3, Q13277
row,Variant,effect of a mutation on the interaction
1,MADQRQRSLSTSGESLYHVLGLDKNATSDDIKKSYRKLALKYHPDKNPDNPEAADKFKEINNAHAILTDATKRNIYDKYGSLGLYVAEQFGEENVNTYFVLSSWWAKALFVFCGRLTCCYCCCCLCCCFNCCCGKCKPKAPEGEETEFYVSPEDLEAQLQSDEREATDTPIVIQPASATETTQLTADSHPSYHTDGFN [L115R],with no effect

# Variants of: B2
# Conditions: with vglu1_human SLC17A7, Q9P2U7
row,Variant,effect of a mutation on the interaction
1,MADQRQRSLSTSGESLYHVLGLDKNATSDDIKKSYRKLALKYHPDKNPDNPEAADKFKEINNAHAILTDATKRNIYDKYGSLGLYVAEQFGEENVNTYFVLSSWWAKALFVFCGRLTCCYCCCCLCCCFNCCCGKCKPKAPEGEETEFYVSPEDLEAQLQSDEREATDTPIVIQPASATETTQLTADSHPSYHTDGFN [L115R],with no effect

# Variants of: B3
# Conditions: with vglu3_human SLC17A8, Q8NDX2
row,Variant,effect of a mutation on the interaction
1,MADQRQRSLSTSGESLYHVLGLDKNATSDDIKKSYRKLALKYHPDKNPDNPEAADKFKEINNAHAILTDATKRNIYDKYGSLGLYVAEQFGEENVNTYFVLSSWWAKALFVFCGRLTCCYCCCCLCCCFNCCCGKCKPKAPEGEETEFYVSPEDLEAQLQSDEREATDTPIVIQPASATETTQLTADSHPSYHTDGFN [L115R],with no effect

# Variants of: B4
# Conditions: with efnb1_human EFNB1, P98172
row,Variant,effect of a mutation on the interaction
1,MADQRQRSLSTSGESLYHVLGLDKNATSDDIKKSYRKLALKYHPDKNPDNPEAADKFKEINNAHAILTDATKRNIYDKYGSLGLYVAEQFGEENVNTYFVLSSWWAKALFVFCGRLTCCYCCCCLCCCFNCCCGKCKPKAPEGEETEFYVSPEDLEAQLQSDEREATDTPIVIQPASATETTQLTADSHPSYHTDGFN [L115R],decreasing interaction strength

# Variants of: B5
# Conditions: with vamp4_human VAMP4, O75379
row,Variant,effect of a mutation on the interaction
1,MADQRQRSLSTSGESLYHVLGLDKNATSDDIKKSYRKLALKYHPDKNPDNPEAADKFKEINNAHAILTDATKRNIYDKYGSLGLYVAEQFGEENVNTYFVLSSWWAKALFVFCGRLTCCYCCCCLCCCFNCCCGKCKPKAPEGEETEFYVSPEDLEAQLQSDEREATDTPIVIQPASATETTQLTADSHPSYHTDGFN [L115R],with no effect

# Variants of: B6
# Conditions: with syt5_human SYT5, O00445
row,Variant,effect of a mutation on the interaction
1,MADQRQRSLSTSGESLYHVLGLDKNATSDDIKKSYRKLALKYHPDKNPDNPEAADKFKEINNAHAILTDATKRNIYDKYGSLGLYVAEQFGEENVNTYFVLSSWWAKALFVFCGRLTCCYCCCCLCCCFNCCCGKCKPKAPEGEETEFYVSPEDLEAQLQSDEREATDTPIVIQPASATETTQLTADSHPSYHTDGFN [L115R],with no effect
